# Test results as given in patent US20230322952A1 (BIOMUNEX PHARMACEUTICALS, published 2023).
# T1: CD19 expressed on the cell surface of tumor cells (UniProt P15391 20-556, limits assumed)
# T1 sequence (looked up): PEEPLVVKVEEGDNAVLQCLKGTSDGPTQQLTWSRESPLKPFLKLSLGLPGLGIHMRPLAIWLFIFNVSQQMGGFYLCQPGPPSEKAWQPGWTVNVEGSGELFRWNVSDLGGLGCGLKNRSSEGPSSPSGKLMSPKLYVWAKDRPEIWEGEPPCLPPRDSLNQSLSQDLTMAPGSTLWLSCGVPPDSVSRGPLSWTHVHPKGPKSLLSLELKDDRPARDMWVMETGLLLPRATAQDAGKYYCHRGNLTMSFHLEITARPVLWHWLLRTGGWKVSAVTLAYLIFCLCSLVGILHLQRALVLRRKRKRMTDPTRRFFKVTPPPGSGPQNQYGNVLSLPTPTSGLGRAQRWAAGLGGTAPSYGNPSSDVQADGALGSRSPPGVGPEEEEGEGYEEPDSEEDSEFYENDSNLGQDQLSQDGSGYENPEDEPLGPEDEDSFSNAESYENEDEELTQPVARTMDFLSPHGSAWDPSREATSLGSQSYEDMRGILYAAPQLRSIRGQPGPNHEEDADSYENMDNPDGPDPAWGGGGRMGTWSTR
# B1: anti-CD19/anti-Vα7.2 Fab-Fab (bispecific antibody)
# heavy: QVQLQQSGAELVRPGSSVKISCKASGYAFSSYWMNWVKQRPGQGLEWIGQIWPGDGDTNYNGKFKGKATLTADESSSTAYMQLSSLASEDSAVYFCARRETTTVGRYYYAMDYWGQGTTVTVSSASTKGPSVFPLAPSSKSTSGGTAALGCLVKDYFPEPVTVSWNSGALTSGVHTFPAVLQSSGLYSLSSVVDVPSSSLGTQTYICNVNHKPSNTKVDKRVEPKSCDKTHTAPPAPAPELLGGPAAPPAPAPAGGEVQLQQSGAELVKPGASVKLSCTASGFNIKDTHMHWVKQRPEQGLEWIGRTDPASGDTKYDPKFQGKATITADTSSNTAYLHLSSLTSEDTAVYYCAHYYRDDVNYAMDYWGQGTTVTVSSASTKGPSVFPQAPSSKSTSGGTAALGCLVKDYFPEPVTVSWNSGALTSGVHTFPAVLQSSGLYSLVSVVTVPSSSLGTQTYICNVNHKPSNTKVDKRVEPKSC
# light 1: not shown
# light 2: DIVMTQSQKFLSTSVGDRVSVTCKARQNVGSNVAWYQQKPGQSPKSLIYSSSFRYSGVPDRFTGSGSGTDFTLTISNVQSEDLAEYFCQQYNTYPYTFGGGTELEIKRTVAAPSVFIFPPSDEQLKSGTASVTCLLNNFYPREAKVQWKVDNALQSGNSQESVTEQDSKDSTYSLVSTLTLSKADYEKHKVYACEVTHQGLSSPVTKSFNRGEC
# B2: anti-Vα7.2/anti-CD19 Fab-Fab (bispecific antibody)
# heavy: EVQLQQSGAELVKPGASVKLSCTASGFNIKDTHMHWVKQRPEQGLEWIGRTDPASGDTKYDPKFQGKATITADTSSNTAYLHLSSLTSEDTAVYYCAHYYRDDVNYAMDYWGQGTTVTVSSASTKGPSVFPQAPSSKSTSGGTAALGCLVKDYFPEPVTVSWNSGALTSGVHTFPAVLQSSGLYSLVSVVTVPSSSLGTQTYICNVNHKPSNTKVDKRVEPKSCDKTHTAPPAPAPELLGGPAAPPAPAPAGGQVQLQQSGAELVRPGSSVKISCKASGYAFSSYWMNWVKQRPGQGLEWIGQIWPGDGDTNYNGKFKGKATLTADESSSTAYMQLSSLASEDSAVYFCARRETTTVGRYYYAMDYWGQGTTVTVSSASTKGPSVFPLAPSSKSTSGGTAALGCLVKDYFPEPVTVSWNSGALTSGVHTFPAVLQSSGLYSLSSVVDVPSSSLGTQTYICNVNHKPSNTKVDKRVEPKSC
# light 1: not shown
# light 2: B1 light 2
# notes: Tandem Fab-Fab without Fc; anti-Vα7.2 Fab (from clone 3C10) at the N-terminus; also called Vα7.2/CD19 Fab-Fab
# B3: anti-CD19/anti-Vα7.2 BiXAb (bispecific antibody, human IgG1, kappa, L234A L235A)
# heavy: not shown
# light 1: not shown
# light 2: B1 light 2
# B4: anti-Vα7.2/anti-CD19 BiXAb (bispecific antibody, human IgG1, kappa, L234A L235A)
# heavy: not shown
# light 1: not shown
# light 2: B1 light 2
# Columns and labels:
# [1] = molecular target: T1, CD19 expressed on the cell surface of …; experiment: cell-based or functional assay
# [2] = molecular target: T2, Vα7.2 TCR chain expressed on Vα7.2+CD8+ MAIT cells (human); experiment: flow cytometry on Vα7.2+ cells among human CD8+ T cells
# T2 construct: whole, on cells; also called TCR Vα7.2 chain; Vα7.2+ cells
# T2 sequence (A0A0B4J238 19-106): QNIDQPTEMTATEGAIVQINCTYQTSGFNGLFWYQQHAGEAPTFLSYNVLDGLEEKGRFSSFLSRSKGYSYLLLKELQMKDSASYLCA
# Experimental: The anti-Vα7.2/anti-CD19 Fab-Fab was then tested for binding on Vα7.2+CD8⁺ T cells. The assay was performed by flow cytometry. Human CD8⁺ T cells were isolated from purified peripheral blood mononuclear cells (PBMCs). Briefly, leukapheresis packs coming from healthy donors were centrifuged in ficoll gradients and the PBMCs were collected. CD8⁺ T cells were then isolated with a commercial negative selection kit (Miltenyi Biotec). These cells were then used to determine binding of anti-Vα7.2/anti-CD19 […] on Vα7.2⁺ cells. Cells were washed with PBS and stained with a Fixable Viability Dye (eFluor™ 780, ThermoFisher) and the human Fc Block reagent (BD) (in PBS for 25 min at 4° C.). The cells were then washed with FACS buffer (PBS, 2 mM EDTA, 0.5% BSA) and stained with different concentrations of anti-Vα7.2/anti-CD19 Fab-Fab (Table 3, shown in both nM and μg/ml) for 1 h at 4° C. An irrelevant Fab-Fab was used as a negative control. Following washing (5×), the cells were stained with a secondary goat anti-human antibody conjugated with Phycoerythrin (Jackson Immunoresearch) and an anti-CD8 antibody (Biolegend) for 45 min at 4° C. The cells were then analyzed in the MACSquant flow cytometer.
# Depending on the donor, Vα7.2⁺ cells range between 1 to 10% of CD8⁺ T cells.
Binder,percentage of CD19+ A-549 tumor cells lysis [1] [%],EC50 [2] [nM]
B1,≤ 30,
B2,≤ 30,3.49
B3,≤ 30,
B4,≤ 30,
